For the data set, the system named is Saccharomyces cerevisiae. Put plainly: transcriptional activation domain activity (GFP:mCherry ratio, weighted mean of sorted bins, harmonized to initial dataset scale) (arbitrary fluorescence ratio units); higher = stronger transcriptional activation. To be noted: beta-estradiol 1 µM; induction time 4 h. An outline of the steps: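 Each value is an activation activity: the read-weighted mean of bin median fluorescence, averaged across barcodes, then mapped linearly to the initial dataset scale. The tiles, fused to an estradiol-inducible synthetic transcription factor, sat at the yeast URA3 locus in GFP-reporter diploids. Cells spent 4 hours at 30 °C in SC with 1 uM beta-estradiol before sorting into 8 GFP:mCherry bins, and tiles below 50 reads were removed.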

“MIFMPSCCGFFISMFTTYGTLFSIRGILTYNPFFLCTFLFPFLFHGVPCLFLF”: the “transcriptional activation domain activity” value was 49700. The result for “PELGRIVRWKWFEWTAKALFIQLYSWSLQAFLFSVGWFNRFLVRKDIVLQIIM” reads 51900; that for “AAPAASKAAPAAASPEKKEKAKPGKKEREAAKAAAAAAPPKASASSSSAPEQA”, 18300; that for “GELRLPELQAIGISGGMSLLQDAVFMDGRPEASPLFKIIHLLKRASHWKLGRS”, 46300. The result for “MYDFFLFLSFLPFPSPSLLCFLILFSFIYLLLFHFYIYIYICLFLSFYIHAFV” reads 10600; that for “EDEAQGEEGEKAKKSRKRKRDEAAEGGKQKKEKAPPKPRAKKGSAEPKPKKAA”, 25900; that for “EEKAAGRSAASGGAEGEGKKRKAEGGEGAAGEEKKEKKKGRTYRQREPLAAGG”, 54900.

As for “LYLRLLVGYLFMILVLLCSHNMMIFLLRSLHHLLTFLTCPLHFFLLLLLLMIT”, the “transcriptional activation domain activity” value was 39000. The result for “HHFVWERCLPDQMFVFAEDDIAHILNVTISSLELPMKTRQEIWVPSNVLFLCA” reads 54200; that for “NGFCYSAITGGSIVLLLPGWYVFFYSLELQSRSMLCGSIRLGWAIIYAFFLGF”, 58900. Regarding “AGEAPIAEGQQAQEARPAAEGAGAGTENQPGRAEGEAAKAEAQAEQQQQQGQA”, the “transcriptional activation domain activity” value was determined as 10300. Regarding “WDWARRYHCLAWGGEVSLLSFLPLLPVCLLSWLCRVSPIKWALVAVFFFWLLG”, the “transcriptional activation domain activity” value is 65900.

“MLLTLLWLFFFFFFFFFPNIPPGVLFTFPSFDLLFASWFISSICASPFFAQFP”: the “transcriptional activation domain activity” value was determined as 56100.

As for “ISVLLVPYAWAILLAFLLLPVFLCVICMDWTYIPFYLPFFPMIGVFSIVIPLF”, the “transcriptional activation domain activity” value came to 21100. Take “EGEGAADPAAGAGAGAEEDGEEEEDEGAADPAAGAGAGDEEGEGAAEEGAAES”: the “transcriptional activation domain activity” value was determined as 17600.

Regarding “MFSFSFPLFLSPLPISLFFLPFALSYSLLSSHLMADICLSSTRWLSSIFFSFF”, the “transcriptional activation domain activity” value is 36100.

Turning to “AIMIMCLLLFENEFLNIVAISFTALVLNELIMVALEITTWHIYMILAEIVTLF”, the “transcriptional activation domain activity” value is 55800. With “QYYPGQLLSVKLDLFNTMLARVLDLSHMEILHFIVGPRVNIVGRGYPLRMGVV”, the “transcriptional activation domain activity” value was determined as 34100. The result for “SNTLSLALYTLIEHIGMQRLEYANNSLVMLLKLIHNIILSLKNLRLFFNFFVT” reads 41900; that for “SKWWLLGDSFEADILTFITLYQFVNAGFVFNYGYIFRKSWYRNYLLICIWALF”, 67200; that for “STARKPRKKKEAEKTVDGAEDEITEETQKPKRKASTKRTSRKTTTDKEETTAT”, 24200. With “KVNTNNDVNENNDLWNSYLQSMDDTTGKNSGNYQQVDNDDNMSLLNLPILEET” the figure was 90400; with “KLTLADLAPSPMAYRLWMFISGLYSLVDPFVRPLVRTYFAACLRLLIRWVPGI”, 59400; with “HYFLVIMVLGMIELLRFPETRDAGVSLIRELLAFKFAKTSWDVVICNQLEKYL”, 41300. With “MGLGVLYHLSLLFPFLFFFLYLSSSFPSFLILFFFFFGYSPSAVWVFLFCFGQ” the figure was 58100; with “ESSSSTGAEEKKKKKKSSKDKKRKAEDEDDATDGAEEKKSKKVKASEDEPARK”, 14100. For the sequence “YDLLSVKDLHIQDRLLSARIVLSDISFLKRILMLLGVPDGLSSRLVSHLWCAV”, the “transcriptional activation domain activity” value amounted to 58400. With “QAAQESDEESEAPNPTAKTLSKRAAEAWKQLSASDKDKYKVLADKEREEHARL” the figure was 28800; with “NMSPNNDDNSIDTASTNTTNRKKNIDENIKNNNDIINDIIFNTNLANNLSNYN”, 51000; with “YTYLSNAQLILSICSLYSCSPYLDPYMLLPLLRWAFLYVFLLVLAFAAVLFSA”, 41800. With “MFDYLVFTLCPCIFFILFLLILLVLLHKALVVFFFYHYSILVLVVPYYCLFVF” the figure was 86400; with “APTLNYELARKFIENSEDALHNSETMDLLGTLSHGNDFALEYNFDFTLLNEID”, 121000.

For the sequence “TLGFVVDRYFRVKNFVPEPFWTIKVMHHKDGKKVNFNWARHRLFDRMSVIILY”, the “transcriptional activation domain activity” value was determined as 64300.

For the sequence “PAASGSDDDEPIAAKKPSAPRKRKAKVESDSDDEKPIAKKLAAKKPRASKVKA”, the “transcriptional activation domain activity” value amounted to 14100.

In the case of “NKHVFLILIRSTLCNNWLIATIWVVEIRFCLDLLQTAFPLIFFRFLTWLFFFQ”, the “transcriptional activation domain activity” value worked out at 79900. With “LCIDDKYILIYGQEDSNHKVTVRKVTLQLFMCLINYTVRNILWWSLSGLITGF” the figure was 38400; with “SLHFNLGELRRTLLPFMWLTLKLSFFLWIFGRHAASNKRVVLCILALLCVLWE”, 64800; with “MHFAVKVKMQFFFFPSLSFFSSVVFISPPPPFVFLWHMGFLACLLFRSLVVFF”, 57000. For the sequence “EVRELHLIDRTLDELRTVQLTLTMLHLICAPKPVFHLLRSVVLQCAEPKGLLT”, the “transcriptional activation domain activity” value was determined as 46300.

As to “VVGGQQKFGTKMVVESDKKCRLILLPRFAETGILVLVNMRTLAVKCVKFGTRG”, the “transcriptional activation domain activity” value stood at 19300. Take “LHRYPIIRRGVALQTGKGKRKRMYQLIVVGNGDGLVGYGEGKNEDMGMAASKS”: the “transcriptional activation domain activity” value was found to be 28500. The result for “MVKLLLTRLPYFCVLVYCVFRYPIATFCLDIFLFFKQLCQNAHAIQWPQISWL” reads 77200. Regarding “MKFVFVPFAVSPPKPFFLLLFLLLFFTSTFCAFSISPFSLFCSSLFYCSRFLL”, the “transcriptional activation domain activity” value turned out to be 52400.

In the case of “VPLPELEPKVVLELRAVVVQVKQLDEEPPLDLEQRVELVPTGQLEQRAAPVLR”, the “transcriptional activation domain activity” value was 35000. Consider “GFRNFVERLTFCLLEDRVRIAMMQPEQPRYLHSFVSSVMGLNWMVQRWLCLPR”, for which the “transcriptional activation domain activity” value was determined as 47600. The result for “GDKTEGAEGEDGAQRRQSTRGRGRSGRGRGGRGRGGRADENKDEENHEDAGES” reads 22500; that for “EGSERESKGSEREGEGSEREGKRNEREGKRGERGGERVGERGSEKVGERGSEK”, 22700; that for “GSSQNTDQPHKSRKKRQREQDEDDTSTNKRSHRKSKKHKSSRKHKSSRKTAKT”, 25100. With “KKEPVYDSEGNEVKPTPRKRVKKEPATEEDGSESKSASKKRVKKEADAEGDSS” the figure was 17100. As to “NKEKMAAFGSFVTEDQEKMEVSFNIFNEITIQDLNFLQFSSIPKLWENKTLEP”, the “transcriptional activation domain activity” value stood at 79600. With “AAAAAAAAAAAAAAAAAAAAAAAAAAAQQRRRQQQQQRRGSSAAARRQQQQQR”, the “transcriptional activation domain activity” value is 22600. The result for “HGEERGWIYLVQYRGIAWLLRRLACCRFEILAIFHLSNLNHPVNVLADSYDRE” reads 19700; that for “MWLLFYARACLSLLWFTSARVLFFSSFLTFSFLIIWLLGSFDIFRILVLFSFF”, 87100; that for “AYTSTMFLQWHNHMVEFYHLRCMLGATLRNLDNENPGASLPVQLWLLFAWHML”, 42100. With “AATTDGEASANEGALVPAGEGAAEGEAKKPRQRKPRVARPPRPAGEEPTGEPS” the figure was 45500; with “KRRGDQGKEQDRKGGEGGEEERGNGARGGGSARKEGDKGGEQKEGGRQRERAG”, 41700; with “RIVSSLFFICHGNYYIAFVILSKALDDYVPKIYVLNLNLNHLYLGLLIMCLLL”, 35800.

Consider “IGGFLGCLLMGHICLIILVFLCQTLVYREVTRLFTLMDSKPTLNWYFFATANY”, for which the “transcriptional activation domain activity” value was determined as 53000.

Turning to “IRGKTLPKYFPRFHMWGHIDADIQLMSKGLITPVCIEMVYGMHPFVVYKLFMF”, the “transcriptional activation domain activity” value turned out to be 62100. Turning to “TLTLLLRERGYELFLLVHFIFVLYVNFLSCLSVRSPLCIVYYGAWPSMIVWGI”, the “transcriptional activation domain activity” value turned out to be 64600. With “PLLACQVAYGFLVVFFSYSLIEEQVGCVIYYEHLVMLCWLVIIMPPNALLSTV” the figure was 58700. The result for “DAESDNEEGAAGAADKKKKKKKKGASTAATSTPAEDEAAAAKGKKKPAAPLAA” reads 53700. The result for “LFRDDEFWGIFASDVGLLVMMGWYGFKTLLWTYILPLMWVNHWIVMITYLHHT” reads 55100; that for “MRGTSLFLFYFISFLSLFLFQLLHFFFFSYFLFRYFVSIIIIFFLIQVVFGLV”, 53200; that for “TWPINYRIRYILPLLVIAGYTKETLRLIQCIHQTRSSFFTPHFFRRMLRVLLR”, 52500. “ICIIPFVNGFLCEPILPLVFFCSSLTLSESWFIFCIGLVVGLWLYTLVAGVCF”: the “transcriptional activation domain activity” value came out at 37300. The result for “EASSDGEGAASASDASGDRELVKAKAKKKKKAAGEEGDKPKKKKKSSPKKAKE” reads 27100. With “DAGSGGGEVRRAGGSGILKESGTFGDCRCLSRYASAASLRVHVLLCWENALSA” the figure was 40400; with “SSSSRGKGGKEKGKGKVAGEGDGDGEEEQGEQQQQQQTSLVEAVARARDACRL”, 27200. For “RVSDYSMAQFRFLLKFLLVHGRWNYIRICKYTISTFWKELLFYLTQAMYQRWN”, the “transcriptional activation domain activity” value was 28800. With “MGWFTFAFWYPPHLLYFLFYLPPPPLFPSHSLEFFSFCICNLTMFILSTFFFA”, the “transcriptional activation domain activity” value turned out to be 50200. For the sequence “EVMKIMPVQKQTRAGQRTRFKAFVVIGDSDGHVGLGVKCAKEVATAIRGAIIL”, the “transcriptional activation domain activity” value came to 55300.

Regarding “VFIAVLSCVGTCGASYLCISFMPLVCHNSPYYTPLSSLIWSCRAGLRCLYLWI”, the “transcriptional activation domain activity” value was determined as 55300. The result for “FYFICLFFILYFVFIFMFVFHMFVFYFLCFFLCLIYFLLVYFDICFLSLYLFF” reads 42600.

Source of the values: the supplement of paper PMC12636428.
